The subject of the experiment is human foreskin fibroblasts. Description: Ligand stimulated [3H]thymidine incorporation. It is filed as cell-based. The text has this:
The possible role of peptide 16T as an antagonist for PDGF activity in vivo was investigated. Following the methodology of Betsholtz et al., J. Cell Physiol 118: 203-210 (1984), the disclosure of which is incorporated by reference, [^3 H] thymidine incorporation by human fibroblasts in the presence of various peptides was studied.

B1: PDGF-BB: platelet derived growth factor B chain homodimer (protein, UniProt P01127 82-190, looked up)
Platelet-derived growth …: SLGSLTIAEPAMIAECKTRTEVFEISRRLIDRTNANFLVWPPCVEVQRCSGCCNNRNVQCRPTQVQLRPVQVRKIEIVRKKPIFKKATVTLEDHLACKCETVAAARPVT
Turning to B1, the “[3H]thymidine incorporation, ligand alone” value (no peptide (unstimulated control 483 cpm), mean of duplicates) is 1918 cpm. Moreover, the “Stimulation of [3H]thymidine incorporation by ligand” value (no peptide, versus unstimulated control) worked out at 4 fold.

The values above are taken from patent US5444151A, “Platelet derived growth factor antagonists” (Ludwig Institute for Cancer Research, priority 1992, dated 1995).
